The nature of series [1]: folding stability dG unfold from chymotrypsin proteolysis; higher = more stable. In short, it runs like this: (§1)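 K50 was inferred by Bayesian fitting of sequencing counts obtained after protease digestion of designed mini-proteins. Unfolding free energy was derived by comparison with a sequence-predicted unfolded-state K50 and a shared folded-state K50, for each protease or both combined. The mini-proteins were under 80 residues, had no cysteine, were carried in a PA-tagged cDNA display construct, and were kept only if AlphaFold2 dimer inter-PAE exceeded 15.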

Series [2] is described as follows: folding stability dG unfold (combined trypsin and chymotrypsin); higher = more stable. The method in brief: as §1
A short description of series [3]: folding stability dG unfold from trypsin proteolysis; higher = more stable. The method in brief:
as §1

± gives the half width of the 95% confidence interval.

Consider “SAGGSAGGSGNSKLTATLTLEFYDPKTGKKIAKIELKPVITTLPNGTAKIDVEYKITFTNEDDSAGGSAGGS [r12_629_TrMRF]”, for which the figures for the “folding stability dG unfold” value in series [1], in series [2] and in series [3] were 3.74 ± 0.11 kcal/mol, 3.39 ± 0.11 kcal/mol and 2.6 ± 0.14 kcal/mol, respectively.

As to “SAGGSAGGSGSFSLSFPDADGVSVTLDPNTGIVTMSFNRPDANYTITLERYPDSIVVKEIKLPSAGGSAGGS [r20_60_JUSTAS]”, the figures for the “folding stability dG unfold” value in series [1], in series [2] and in series [3] were 1.48 ± 0.1 kcal/mol, 1.32 ± 0.062 kcal/mol and 1.05 ± 0.026 kcal/mol, respectively.

On to “SAGGSAGGSGSMKVYTHNVPPGQELTITITRGSSSTTLTFPPNTTVTITVPTSSPATITLTAPSAGGSAGGS [r12_550_JUSTAS]”, for which the “folding stability dG unfold” value in series [1] is 1.87 ± 0.054 kcal/mol; in series [2] it was 1.74 ± 0.07 kcal/mol; in series [3], 1.39 ± 0.031 kcal/mol.

As for “SAGGSAGGSGSSTEVTTTTLPDTSYTTTNSTTTTFSPDQPEAVEAGLPVPSTVTTTTTTSPAGSAGGSAGGS [r20_138_JUSTAS]”, the “folding stability dG unfold” value in series [1] is 0.0599 ± 0.1 kcal/mol; in series [2] it was 0.59 ± 0.12 kcal/mol; in series [3], 0.918 ± 0.056 kcal/mol.

In the case of “SAGGSAGGSGSTVVEVEFPDARIVITVEPPGVLTVTVERPPFPVETVRLPDMTVEEAVAYALASAGGSAGGS [r20_8_JUSTAS]”, the “folding stability dG unfold” value amounted to 1.14 ± 0.098 kcal/mol in series [1], 1.48 ± 0.074 kcal/mol in series [2] and 1.76 ± 0.053 kcal/mol in series [3].

On to “SAGGSAGGSIKPGQKVKIEIKVEEVDGKLVITAKVYNKDGKLIYEAEIVIENGKIKEVKITPPSAGGSAGGS [r12_264_TrROS_Hall]”, for which the results for the “folding stability dG unfold” value in series [1], in series [2] and in series [3] were 3.11 ± 0.31 kcal/mol, 2.9 ± 0.34 kcal/mol and 2.58 ± 0.16 kcal/mol, respectively.

For “SAGGSAGGSIPEILKKIGISPEVVTEVEVTPVEKLPDSLVVKVTYTYKLPNGTTETKTVTVPIGSAGGSAGG [r6_776_JUSTAS]”, the “folding stability dG unfold” value was 2.76 ± 0.034 kcal/mol in series [1], 2.66 ± 0.13 kcal/mol in series [2] and 2.14 ± 0.091 kcal/mol in series [3].

On to “SAGGSAGGSIRIIFPVDNPEQAENIAEEIAERFGIQIEDIEVEQVPNGMYIVTFEVKIPPEMISAGGSAGGS [r12_577_TrROS]”, for which the figures for the “folding stability dG unfold” value in series [1], in series [2] and in series [3] were 2.28 ± 0.036 kcal/mol, 2.38 ± 0.096 kcal/mol and 2.41 ± 0.13 kcal/mol, respectively.

For the sequence “SAGGSAGGSIRRDENGNFRVRIKVRFPGNGRKRTIEIPFDNATLEEIRKQAIDHGIRPIEIIPSAGGSAGGS [r12_792_TrROS]”, the results for the “folding stability dG unfold” value in series [1], in series [2] and in series [3] were 1.35 ± 0.053 kcal/mol, 1.24 ± 0.047 kcal/mol and 0.993 ± 0.052 kcal/mol, respectively.

Turning to “SAGGSAGGSISQIKSKIKKILEEKGLKPTKIVIKKTEKLKNKIKVEVEVEIGKGPKISMIIEIESAGGSAGG [r6_841_JUSTAS]”, the “folding stability dG unfold” value in series [1] came to 2.43 ± 0.16 kcal/mol; in series [2], 3.19 ± 0.22 kcal/mol; in series [3], 3.89 ± 0.21 kcal/mol.

“SAGGSAGGSITIEIPGASSLEEAIEQAEVVVNEIVKKGYPGKPIKVTVILPGTGEAFTFEVPLESAGGSAGG [r6_237_TrMRF]”: the entries for the “folding stability dG unfold” value in series [1], in series [2] and in series [3] were 2.4 ± 0.047 kcal/mol, 2.19 ± 0.12 kcal/mol and 2.02 ± 0.11 kcal/mol, respectively.

Consider “SAGGSAGGSIWIPPNHSVEEFAKEIQDKGNAEVKRDEPGWYKIKSKNNKPKKRIRFQANPEQFSAGGSAGGS [r20_236_TrROS]”, for which the “folding stability dG unfold” value is 0.24 ± 0.53 kcal/mol in series [1], -0.046 ± 0.43 kcal/mol in series [2] and -0.163 ± 0.5 kcal/mol in series [3].

Regarding “SAGGSAGGSKAEVFETPDGLVVVVVPTEDSVRAFVFFPDGYIAEFDFPTGKIVRIFSPDEEIASAGGSAGGS [r12_235_TrMRF]”, the “folding stability dG unfold” value came out at 3.55 ± 0.052 kcal/mol in series [1], 3.27 ± 0.079 kcal/mol in series [2] and 2.8 ± 0.09 kcal/mol in series [3].

In the case of “SAGGSAGGSKAKIEVLEVFPDYIVYKIETENPVIAVIVPLPNGKVKIFVFNPNGEPIAEFELGSAGGSAGGS [r12_1061_TrMRF]”, the “folding stability dG unfold” value was found to be 3.88 ± 0.062 kcal/mol in series [1], 3.4 ± 0.17 kcal/mol in series [2] and 2.04 ± 0.18 kcal/mol in series [3].

Consider “SAGGSAGGSKEIVIKVNVSEEDLKEKAEELLKKLEELLPPGAKIKKIEIEYDEETGELVIKIESAGGSAGGS [r12_308_TrROS_Hall]”, for which the “folding stability dG unfold” value in series [1] came to 1.94 ± 0.15 kcal/mol; in series [2], 2.26 ± 0.18 kcal/mol; in series [3] it was 2.49 ± 0.22 kcal/mol.

Consider “SAGGSAGGSKGVKELVIVVPPDKPEKIEEFLKKLRDEYAKDIKVLEVKETPDGGYIAKIKITDSAGGSAGGS [r12_91_TrMRF]”, for which the entries for the “folding stability dG unfold” value in series [1], in series [2] and in series [3] were 1.96 ± 0.071 kcal/mol, 1.85 ± 0.12 kcal/mol and 1.4 ± 0.041 kcal/mol, respectively.

As to “SAGGSAGGSKIEIHVQVSPELSPEEALERIRREIEEALPEELKDISLDDIIITVYPSHPDVPLSAGGSAGGS [r12_384_TrMRF]”, the “folding stability dG unfold” value in series [1] was -0.0223 ± 0.053 kcal/mol; in series [2] it was 0.643 ± 0.099 kcal/mol; in series [3] it was 1.09 ± 0.047 kcal/mol.

“SAGGSAGGSKIKIYPYSTKGKNEVYYLIETENNYLYIKVTIYYDPKTGKPVKIEIKEIFTLPKSAGGSAGGS [r12_70_TrMRF]”: the “folding stability dG unfold” value in series [1] stood at 3.07 ± 0.12 kcal/mol; in series [2], 2.57 ± 0.26 kcal/mol; in series [3] it was 2.44 ± 0.09 kcal/mol.

For the origin of these results see the supplement of paper PMC12764529.
